Assay results as given in patent EP4350345A2.
Substitutions are numbered along the chain they refer to. Numbers in names are those of the source. Blank lines part the entries; values can stand above or below the binder they belong to.

Assays:
[1] = molecular target: antibodies against ISV in serum sample IHUS#B09032311A20; experiment: ECL bridging assay, drug displacement; competitor of labelled ISV SEQ ID NO:1
[2] = molecular target: antibodies against ISV in serum sample IHUS#B09032311A3; experiment: as above
[3] = molecular target: serum sample IHUS#B09032311A1; experiment: as above
[4] = molecular target: affinity purified antibody IHuP#002-001-ABL-08; experiment: ECL bridging/competition assay, 10 ug/ml ISV with 400 ng/ml analytical antibody; competitor of labelled ISV

% reduction [1]: 97%
ECLU confirmatory assay [1]: 570 ECLU
% reduction [2]: 90%
ECLU confirmatory assay [2]: 228 ECLU
% reduction [3]: 6%
ECLU confirmatory assay [3]: 58 ECLU
% reduction [4]: 91.4%
ECLU confirmatory assay [4]: 251 ECLU
B1: Example 1C: (A14P,R39Q,K83R,T91Y,Q108L) (VHH)
VHH: EVQLVESGGGLVQPGGSLRLSCAASGRTFNNYAMGWFRQAPGKEREFVAAITRSGVRSGVSAIYGDSVKDRFTISRDNAKNTLYLQMNSLRPEDTAVYYCAASAIGSGALRRFEYDYSGQGTLVTVSS

% reduction [1]: 97%
ECLU confirmatory assay [1]: 628 ECLU
% reduction [2]: 93%
ECLU confirmatory assay [2]: 156 ECLU
% reduction [3]: 8%
ECLU confirmatory assay [3]: 57 ECLU
% reduction [4]: 89.1%
ECLU confirmatory assay [4]: 319 ECLU
B2: Example 1C: (A14P,K83R,Q108L) (VHH)
VHH: B1 VHH with Q39R, Y99T
